Experimental findings from PMC5427921 (2017) are described below.

For orientation: Kd means the equilibrium constant for the complex coming apart. Low values mean a tighter complex, high ones a looser complex.

Some targets named below: PRL3 C104A (human, UniProt O75365 1-169, C104A); PRL3 R138E (human, UniProt O75365 1-169, R138E); PRL3 C104S (human, UniProt O75365 1-169, C104S); PRL3 L108A (human, UniProt O75365 1-169, L108A); PRL3 C49S (human, UniProt O75365 1-169, C49S); PRL3 D72A (human, UniProt O75365 1-169, D72A); PRL3 C49A (human, UniProt O75365 1-169, C49A).
Holding throughout (assay): ITC
Test [1] concerns the target PRL3 with Arg138 mutated to alanine (human, UniProt O75365 1-169, Arg138 to alanine).
The target in test [2] is PRL3 with the catalytic cysteine (Cys104) mutated to glutamic acid (human, UniProt O75365 1-169, Cys104 to glutamic acid).
Test [3] concerns the target CBS-pair domain of human CNNM3 (GST tag removed) (human, UniProt Q8NE01 309-452).

B1: CNNM3 CBS-pair domain as a GST fusion (domain or fragment)
chain: LRCRTVEDVLTPLEDCFMLDASTVLDFGVLASIMQSGHTRIPVYEEERSNIVDMLYLKDLAFVDPEDCTPLSTITRFYNHPLHFVFNDTKLDAVLEEFKRGKSHLAIVQKVNNEGEGDPFYEVLGLVTLEDVIEEIIRSEILDE
On to B1, for which the Kd came to 320 nM in test [1]; 180 nM with PRL3 C104A; 530 nM in the test with PRL3 R138E; 1400 nM with PRL3 C104S; 2800 nM in [2]; 1700 nM with PRL3 L108A. Moreover, the Kd amounted to 105 nM with PRL3 C49S, 215 nM with PRL3 D72A and 72 nM with PRL3 C49A.

B2: PRL2 phosphatase (as used in ITC) (enzyme)
chain: MNRPAPVEISYENMRFLITHNPTNATLNKFTEELKKYGVTTLVRVCDATYDKAPVEKEGIHVLDWPFDDGAPPPNQIVDDWLNLLKTKFREEPGCCVAVHCVAGLGRAPVLVALALIECGMKYEDAVQFIRQKRRGAFNSKQLLYLEKYRPKMRLRFRDTNGHCCVQ
In test [3], B2 yielded a Kd of 11 nM.
